Results on 29 molecules are retold here after paper PMC11401214, “A new generation of nanobody research tools using improved mass spectrometry-based discovery methods” (The Journal of Biological Chemistry, 2024).

The labels stand for the following.
B1: GST-7 (VHH)
VHH: QVTLVESGGGLVQAGGSLGLSCTASGHTFNPYAMAWFRQAPGKEREFVAAIGWRVGTTYYTDSVKGRFTISADNAKNTAYLQMNSLKPEDTAVYYCAAGFGRSPSNYDYWGQGTQVTVS
notes: anti-GST nanobody; source: ArcticExpress (DE3) cells, purified from periplasm
B2: GST-1 (VHH)
VHH: QVQLVESGGGLVQAGGSLRLSCVCVGRAFGVYAMGWFRQSPGKEREFVAAITWNGGSIDYADSVKGRFAISRDNPPNTVYLQMNSLKPEDTAVYYCAKYRNNYYNEAPNSWGQGTQVTVS
notes: as for B1
B3: GST-4 (VHH)
VHH: B2 VHH
notes: as for B1
B4: GST-2 (VHH)
VHH: B2 VHH with C24V, V31A, D59T, Q82E, R100T, N109K
notes: as for B1
B5: GST-3 (VHH)
VHH: QVQLVESGGGLVQPGGSLRLSCADSGRIFSDYTMAWFRQPPGKEREFVASINRSGLGTYYADSVKGRFTVTRDNAKNMVYLQMNSLTVEDTAVYYCGARWGGSYIDPREGMYDFRGQGTQVTVS
notes: as for B1
B6: GST-5 (VHH)
VHH: QVQLVESGGGLVQAGGSLRLSCVVTGRAFGAYAMGWFRQSPGKEREFVAAITWNGGTTNYADSVKGRFAISRDNPPNTVYLQMNSLKPEDTAVYYCAKYPNNFWHNEAPDSWGRGTQVTVS
notes: as for B1
B7: GST-8 (VHH)
VHH: QVQLVESGGDLVQAGGSLRLSCAASGSISAAYDMGWFRQVPGKQRELVASLGSGGFSAYADSVKGRFTVSRDNAKNTVYLQMNSLKPEDTGVYYCAARTPFDIWTTGRWGEYDYWGQGTQVTVS
notes: as for B1
B8: GST-6 (VHH)
VHH: QVQLVESGGGLVQPGESLRLSCAASGFTFSSHRMNWLRQAPGKGLEWVSTTSTGGGSAATYYVNSVKGRFTVSRDDAKNMLYLQMNSLKPEDTARYYCAIPESPGRPFGSTWSEYRYWGQGTQVTVS
notes: as for B1
B9: LaTdT-2 (VHH)
VHH: DVQLVESGGGLVQAGDSLRLSCAFSGSAFDTYAMGWFRQAPGKEREFVSAITWSGGNTYYADSAKGRFTISRDDAKNTVYLQMNSLKPEDAATYYCAANRYGSSWSPLTKMGQYEHWGQGTQVTVS
B10: LaTdT-45 (VHH)
VHH: B9 VHH with D1Q
B11: LaTdT-1 (VHH)
VHH: DVQLVESGGGLVPAGGSLRLSCAASTSDLFSRYTMGWFRQAPGKEREFVSAITGMSSMTKYADSVKGRFTVSRDNRKATMYLQMDSLKPEDTAVYYCAAHTTTAAATPQSMGLMLKYDHWGQGTEVTVS
B12: LaTdT-9 (VHH)
VHH: QVQLVESGGGLVQPGDSLMLSCVISGHTFTNFRMGWFRQAPGKEREFVAGITWLFGRTDYADSVQGRFTISRDKGKDTMYLQMDSLKPEDTGVYTCAVQSGVLAYPMREGFYDIWGQGTHVTVS
B13: LaTdT-10 (VHH)
VHH: DVQLVESGGRLVQDGGSLRLSCEVSGGTFDTFAMGWFRQAPGKEREFVSAITWSGGNTYYGDSVKGRFTISRNNVKRTVYLQMISLKPEDTGVYYCAADPYGSSWSPLQKEGQYDYWGQGTQVTVS
B14: LaTdT-44 (VHH)
VHH: B13 VHH with D1Q
B15: LaTdT-38 (VHH)
VHH: QVQLVESGGGLVQAGGSLRLSCAASGRSFSGNNMGWFRQVSGTEREFVAAISWSGLITEYSGAVKGRFTISRDNAKNTLYLQMNSLKPEDTAVYSCAADGRDVQLPGRSEYDYNYWGQGTQVTVS
B16: LaTdT-8 (VHH)
VHH: QVQLVESGGGLVQAGDSLRLSCADAGLPYAFNHYGMAWFRQAPGKEREFVAGTSGGMTYYGDSVPDRFSFSRDNDKKTVHLHINSLKPEDTAVYYCAARLGGRYEDASDYDVWGQGTQVTVS
B17: LaTdT-39 (VHH)
VHH: QVQLVESGGGLVQAGESLQLSCAASGGTLRDAIVGWFRQARGKEREFLASITWSGLSTNYSDSVKGRFVISRANPQNTAYLQMNSLKPEDTAIYYCAAKIGAFGLADEFRTVPQYDSWGQGTQVTVS
B18: LaG94-10 (VHH)
VHH: QVQLVESGGGLVQAGGSLRLSCAASGLTLRVYDVTWFRQAPGKEREFVGTVNRNGVVTDYADSVKGRFTISRDNPKNTIYLQMNSLKPEDTAVYYCAAKTRPKLSTLWDEYIYRGQGTQVTVS
B19: LaG94-6 (VHH)
VHH: QVQLVESGGGAVQAGGSLRLSCAASGLTFSLYTMGWFRQAPEKEPEFVAYISKSGDTTTYADSVKGRFTIGRDNAKSTVYLQMNSLKSEDTAVYYCAASIKREITPNSIYRGQGTQVTVS
B20: LaG94-4 (VHH)
VHH: DVQLVESGGGLVQAGGSLRLSCAASGDTSSIHFWEWYRQAPGKQRELVATANNGDFTHLQDSVKGRFTISKDNAKSTVYLQMNDLKPEDTAVYLCYARSYSNSNFWGQGTQVTVS
B21: LaG94-12 (VHH)
VHH: QVQLVESGGRLVQAGGSLRLSCAVSGGTFSLYSLGWFRQAPGKEREFVAAFSREDGTTSFADSVKGRFTMFRDGTKNTVYLQMNSLKQEDTAVYSCAATVRAQPSYSWSSYVYRGLGTQVTVS
B22: LaG94-5 (VHH)
VHH: QVQLAESGGGLVQAGGSLRLSCAASGRTFAMGWFRRAPGKEREFVASMSRSGLDTHYADSVKGRFTISRDNALNTVYLQTDSLKPEDTGDYFCAVGLRYWSLSGDYIRREKYDVWGQGTQVTVS
B23: LaG94-2 (VHH)
VHH: DVQLVESGGALVQAGGSLRLSCEFSGGTFNLYGIGWFRQAPEQDHEFVAGVSRYGSTYESVSVKGRFTSSRDNAKNSAYLEMNTLKPEDTGVYTCAATVREQVPTNFGSYIYRGQGTQVTVS
B24: LaG94-8 (VHH)
VHH: QVQLVESGGGLVQAGGSLRLSCAASGRTFMNYAMGWFRQAPGKGREFVASISWTGETSTYADFVKGRFTISRDNAKNTVYLQMDSLKPEDTAVYRCAAKRATDFDDTVREAAEADYWGQGTQVTVS
B25: LaG94-15 (VHH)
VHH: QVQLVESGGGAVQSGGSLSLSCAASGGIRSISAMTWFRQAPGREREFVAAVTRTLGTTYYTDSVKGRFTISRDSVKGTLYLRMNNMRPEDAAVYYCAARTRGFSTKVALETTDGMDYWGKGTLVTVS
B26: LaG94-1 (VHH)
VHH: QVQLVESGGGLVQTGDSLRLSCRASGLTLSVYSTGWFRQAPGKEHENVAWISRSGDETYYEDSVKGRFTISRDNAKNTVYLQMNDLKPEDMARYYCAASNRGRTTAWNLYIYRGQGTQVTVS
B27: LaG94-9 (VHH)
VHH: QVQLVESGGGLVQPGGSLRLSCAASGGTFDTHTMGWFRQAPGKQREFVSAIRLHGVGTYYADSVKGRFTISRENAKNTVHLQMNNLKPEDTAVYYCAADRNWSRATEKEEYDYWGQGTQVTVS
B28: LaG94-18 (VHH)
VHH: QVQLVESGGGLVQAGGSLRLSCVASGRTFSTSAMAWWRQAPGKEREFVAAISWNVGTTYYPDSVKGRFTISRDKAQNAVYLQMNSLKPEDTAVYYCAARVTGYFGDQVRRADDYRYWGQGTQVTVS
B29: LaG94-3 (VHH)
VHH: QVQLVESGGGLVQAGGSLRLSCTASGGTVSSSGMGWFRQSSGNDRDFVAFITPTGPTTWYEESVNSRFTVSRDNAKNTIYLQMKSLRPEDTAIYYCAAGNIGRDSRTYPYWGQGTQVTVS

Residue numbers refer to the chain shown, from its start.

One assay deals with T1, GST (Schistosoma japonicum (assumed, …, UniProt P08515 = GST)).
T1 construct: GST (glutathione S-transferase), the expression fusion protein tag; the methods describe only the production of GST-TEV protease; the 'GST' immobilised for SPR may be that fusion
T1 sequence (P08515 whole entry, looked up, the tested form may be a part): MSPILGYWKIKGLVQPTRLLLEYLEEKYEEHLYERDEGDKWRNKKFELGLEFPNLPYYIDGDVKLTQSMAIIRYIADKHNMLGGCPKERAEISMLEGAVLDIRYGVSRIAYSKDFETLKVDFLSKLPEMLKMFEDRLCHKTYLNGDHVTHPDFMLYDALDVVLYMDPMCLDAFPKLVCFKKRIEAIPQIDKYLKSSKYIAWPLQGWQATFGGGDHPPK
The assay can be described thus: SPR; Biacore 8K; antigen immobilised on CM5 chip by amine coupling at 1 ug/ml (tdTomato) or 5 ug/ml (GST, IgGs) in 10 mM sodium acetate pH 5.5; nanobody injected in single-cycle kinetics at 0.1-10 nM; 20 mM Na-Hepes pH 7.4, 150 mM NaCl, 0.05% Tween 20; Langmuir 1:1 model, RIgG-1 and GIgG-4 fit to a two-step binding model. The following applies: both partners purified. (Surface plasmon resonance follows binding to a sensor surface in real time, without labels.)
Turning to B1, the dissociation constant Kd (usually the free concentration of one partner at which half of the binding sites on the other are occupied at equilibrium, for simple one-to-one binding) amounted to 0.17 nM.
Molecule B2 gave a Kd of 0.085 nM.
Molecule B3 came in with a Kd of 0.26 nM.
The same measure, in the same setting: then B4, with 0.064 nM; and B5, with 0.35 nM; and B6, with 0.13 nM.
For B7, binding was put at a Kd of 0.13 nM.
On the same count and under the same terms, then B8, with 0.15 nM.

The target in another assay is tdTomato. Described as above.
Details: not given
Molecule B9 came in with a Kd of 0.0035 nM.
On the same count and under the same terms, then B10, with 0.028 nM; and B11, with less than 0.018 nM; and B12, with 0.084 nM.
On to B13, for which the Kd was 0.052 nM.
In turn, B14 yielded a Kd of 0.044 nM.
With B15, the dissociation constant (Kd) was determined as 0.057 nM.
Turning to B16, the Kd is 0.037 nM.
B17 gave a dissociation constant Kd of 0.0059 nM.

A further assay addresses GFP [GFP: P42212]. The assay can be described thus: SPR; GFP immobilised by EDC/NHS coupling (ProteOn XPR36, GLC chip, 5 ug/ml in 10 mM sodium acetate pH 5.0; or Biacore 8K, CM5 chip, 5 ug/ml, pH 5.5); nanobody as analyte; 20 mM Na-Hepes pH 7.4, 150 mM NaCl, 0.05% Tween 20; Langmuir binding model.
Details: not given
As for B18, the Kd was 0.009 nM.
As to B19, the Kd came out at 0.083 nM.
B20: the Kd turned out to be 3.7 nM.
B21 gave a Kd of 0.3 nM.
Still for that read-out and setting: next, B22: less than 0.00089 nM; B23: 27 nM; B24: 0.21 nM.
In turn, B25 returned a Kd of less than 0.00014 nM.
For the molecule B26, the Kd amounted to 0.016 nM.
Regarding B27, the Kd was 0.021 nM.
Molecule B28 had a Kd of 0.92 nM.
Still for that read-out and setting: then B29, with 0.13 nM.
